Assay results reported in patent US20150290329A1.

Experiments:
8-arm-PEG-P2 (20 kDa) = assay: cell-based or functional assay
8-arm-PEG-P1 (40 kDa) = assay: cell-based or functional assay

Sequence of 8-arm-PEG-P2 (20 kDa) (peptide, as listed by the source): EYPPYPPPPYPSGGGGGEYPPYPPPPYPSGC

- storage modulus G′ of the hydrogel 8P2-20k (8-arm-PEG-P2 (20 kDa)): 15 Pa
- storage modulus G′ of the hydrogel 8P1-40k (8-arm-PEG-P1 (40 kDa)): 3.9 Pa
Substance: C7 recombinant protein polymer (seven repeats of the CC43 WW domain) (designed binder)
